According to article PMC3718739 (PLoS ONE, 2013):

Molecular target: ARPC4-His6x (human, UniProt P59998 1-168)
Assay: far-Western, overlay or dot blot
Settings: both partners purified

B1: GST-Rv1626 (natural protein)
chain: MTGPTTDADAAVPRRVLIAEDEALIRMDLAEMLREEGYEIVGEAGDGQEAVELAELHKPDLVIMDVKMPRRDGIDAASEIASKRIAPIVVLTAFSQRDLVERARDAGAMAYLVKPFSISDLIPAIELAVSRFREITALEGEVATLSERLETRKLVERAKGLLQTKHGMTEPDAFKWIQRAAMDRRTTMKRVAEVVLETLGTPKDT
notes: also called Rv1626-pGEX4T3nn; not shown: GST, N-terminal, kept
B1: binds.
